Target: human HER4 expressed on HEK293 cells (human) (UniProt Q15303)
Test: flow cytometry, HEK293 HER4 overexpressing cells, PE-A B2-A channel

Sequence of human HER4 expressed on HEK293 cells (human) (Q15303 26-1308): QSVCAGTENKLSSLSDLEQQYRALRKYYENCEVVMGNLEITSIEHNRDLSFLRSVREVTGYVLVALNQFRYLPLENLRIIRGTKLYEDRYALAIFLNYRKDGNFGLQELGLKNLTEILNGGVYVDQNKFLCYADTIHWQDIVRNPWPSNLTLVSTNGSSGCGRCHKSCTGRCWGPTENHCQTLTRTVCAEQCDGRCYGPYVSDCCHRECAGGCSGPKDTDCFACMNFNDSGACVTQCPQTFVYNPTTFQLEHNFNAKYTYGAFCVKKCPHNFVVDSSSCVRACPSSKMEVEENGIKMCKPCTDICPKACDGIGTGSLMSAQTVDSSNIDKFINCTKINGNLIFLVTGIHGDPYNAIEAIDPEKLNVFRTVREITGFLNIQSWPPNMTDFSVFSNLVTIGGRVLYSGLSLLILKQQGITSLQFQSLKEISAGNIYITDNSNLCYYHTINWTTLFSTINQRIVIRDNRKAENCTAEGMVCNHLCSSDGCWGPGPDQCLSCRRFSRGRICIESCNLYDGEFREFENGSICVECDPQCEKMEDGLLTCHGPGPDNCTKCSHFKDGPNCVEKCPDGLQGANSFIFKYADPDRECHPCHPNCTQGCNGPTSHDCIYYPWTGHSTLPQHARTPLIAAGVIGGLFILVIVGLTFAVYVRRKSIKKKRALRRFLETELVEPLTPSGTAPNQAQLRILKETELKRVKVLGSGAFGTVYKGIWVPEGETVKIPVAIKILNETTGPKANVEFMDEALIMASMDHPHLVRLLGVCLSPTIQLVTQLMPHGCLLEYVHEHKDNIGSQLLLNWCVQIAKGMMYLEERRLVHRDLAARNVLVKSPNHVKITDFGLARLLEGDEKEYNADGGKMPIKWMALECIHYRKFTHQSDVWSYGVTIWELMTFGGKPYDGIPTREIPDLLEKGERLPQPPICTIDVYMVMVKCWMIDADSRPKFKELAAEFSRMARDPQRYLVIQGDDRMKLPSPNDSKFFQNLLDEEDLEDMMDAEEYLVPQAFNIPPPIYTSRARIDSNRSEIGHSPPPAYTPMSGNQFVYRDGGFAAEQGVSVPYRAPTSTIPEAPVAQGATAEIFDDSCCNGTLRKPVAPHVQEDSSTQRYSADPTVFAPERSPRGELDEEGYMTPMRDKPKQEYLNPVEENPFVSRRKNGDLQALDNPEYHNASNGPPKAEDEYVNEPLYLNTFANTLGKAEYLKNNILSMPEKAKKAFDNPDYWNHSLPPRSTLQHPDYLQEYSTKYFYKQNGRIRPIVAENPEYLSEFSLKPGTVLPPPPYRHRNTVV

% Positive for HER4: 8.73%
B1: MM-121 (antibody, INN chains, looked up, human IgG2, V domains shown)
VH: EVQLLESGGGLVQPGGSLRLSCAASGFTFSHYVMAWVRQAPGKGLEWVSSISSSGGWTLYADSVKGRFTISRDNSKNTLYLQMNSLRAEDTAVYYCTRGLKMATIFDYWGQGTLVTVSS
VL: QSALTQPASVSGSPGQSITISCTGTSSDVGSYNVVSWYQQHPGKAPKLIIYEVSQRPSGVSNRFSGSKSGNTASLTISGLQTEDEADYYCCSYAGSSIFVIFGGGTKVTVL
modifications: IgG2/kappa

From patent US20210155712A1
